According to article PMC12214560, “NAD-dependent dehydrogenases enable efficient growth of Paracoccus denitrificans on the PET monomer ethylene glycol” (Nature Communications, 2025):

B1: EtgB, NAD-dependent alcohol dehydrogenase (Pden_2367) (enzyme, Paracoccus denitrificans DSM 413)
chain: MAKTMKAAVVREFGKPLTIDEVPVPEPGPGMIQVRIQASGVCHTDLHAAEGDWPVKPNPPFIPGHEGVGFVSAVGAGVKHVKEGDRVGVPWLYTACGHCRHCLGGWETLCESQLNTGYSVNGGFADYVVADPNYVGHLPKNVDFLDIAPVLCAGVTVYKGLKVTDTKPGDWVVISGIGGLGHMAVQYAKAMGMNVAAVDIDDEKLALARKLGATVTVNAATEPDPAAAIRKQTDGGAQGVLVTAVGRKAFEQAIGMVARGGTVALNGLPPGDFPLDIFGMVLNGITVRGSIVGTRLDLQESLDFAGDGKVKATVHKAKLEDINNIFGQMHKGQIEGRMVLDMAG
notes: The enzyme holds zinc ions; also called EtgB WT; alcohol dehydrogenase EtgB; source: E. coli BL21 AI, purified (Ni-NTA, desalting, size exclusion on Superdex 200 Increase)
B2: EtgB (Paracoccus denitrificans PD1222; T44S) (protein)
chain: MAKTMKAAVVREFGKPLTIDEVPVPEPGPGMIQVRIQASGVCHSDLHAAEGDWPVKPNPPFIPGHEGVGFVSAVGAGVKHVKEGDRVGVPWLYTACGHCRHCLGGWETLCESQLNTGYSVNGGFADYVVADPNYVGHLPKNVDFLDIAPVLCAGVTVYKGLKVTDTKPGDWVVISGIGGLGHMAVQYAKAMGMNVAAVDIDDEKLALARKLGATVTVNAATEPDPAAAIRKQTDGGAQGVLVTAVGRKAFEQAIGMVARGGTVALNGLPPGDFPLDIFGMVLNGITVRGSIVGTRLDLQESLDFAGDGKVKATVHKAKLEDINNIFGQMHKGQIEGRMVLDMAG
notes: pET16b, His-tagged, E. coli BL21 AI, Ni-NTA purified; homotetramer; zinc-dependent medium-chain alcohol dehydrogenase
B3: EtgB (Paracoccus denitrificans PD1222; H47N) (protein)
chain: MAKTMKAAVVREFGKPLTIDEVPVPEPGPGMIQVRIQASGVCHTDLNAAEGDWPVKPNPPFIPGHEGVGFVSAVGAGVKHVKEGDRVGVPWLYTACGHCRHCLGGWETLCESQLNTGYSVNGGFADYVVADPNYVGHLPKNVDFLDIAPVLCAGVTVYKGLKVTDTKPGDWVVISGIGGLGHMAVQYAKAMGMNVAAVDIDDEKLALARKLGATVTVNAATEPDPAAAIRKQTDGGAQGVLVTAVGRKAFEQAIGMVARGGTVALNGLPPGDFPLDIFGMVLNGITVRGSIVGTRLDLQESLDFAGDGKVKATVHKAKLEDINNIFGQMHKGQIEGRMVLDMAG
notes: as for B2
B4: EtgB (Paracoccus denitrificans PD1222; H47N/T44S) (protein)
chain: MAKTMKAAVVREFGKPLTIDEVPVPEPGPGMIQVRIQASGVCHSDLNAAEGDWPVKPNPPFIPGHEGVGFVSAVGAGVKHVKEGDRVGVPWLYTACGHCRHCLGGWETLCESQLNTGYSVNGGFADYVVADPNYVGHLPKNVDFLDIAPVLCAGVTVYKGLKVTDTKPGDWVVISGIGGLGHMAVQYAKAMGMNVAAVDIDDEKLALARKLGATVTVNAATEPDPAAAIRKQTDGGAQGVLVTAVGRKAFEQAIGMVARGGTVALNGLPPGDFPLDIFGMVLNGITVRGSIVGTRLDLQESLDFAGDGKVKATVHKAKLEDINNIFGQMHKGQIEGRMVLDMAG
notes: as for B2
B5: EtgA, NAD-dependent aldehyde dehydrogenase (Pden_2366) (enzyme, Paracoccus denitrificans DSM 413)
chain: MPNDQTHPFRGVNALPFEERYDNFIGGEWVAPVSGRYFTNTTPITGAEIGQIARSEAGDIELALDAAHAAKEKWGATSPAERANIMLKIADRMERNLELLATAETWDNGKPIRETMAADLPLAIDHFRYFAGVLRAQEGSISQIDDDTVAYHFHEPLGVVGQIIPWNFPLLMACWKLAPAIAAGNCVVLKPAEQTPAGIMVWANLIGDLLPPGVLNIVNGFGLEAGKPLASSNRIAKIAFTGETTTGRLIMQYASENLIPVTLELGGKSPNIFFADVAREDDDFFDKALEGFTMFALNQGEVCTCPSRVLIQESIYDKFMERAVQRVQAIKQGDPRESDTMIGAQASSEQKEKILSYLDIGKKEGAEVLTGGKAADLGGELSGGYYIEPTIFRGNNKMRIFQEEIFGPVVSVTTFKDQAEALEIANDTLYGLGAGVWSRDANTCYRMGRGIKAGRVWTNCYHAYPAHAAFGGYKQSGIGRETHKMMLDHYQQTKNMLVSYSPKKLGFF
notes: EtgA, NAD-dependent aldehyde dehydrogenase of Paracoccus denitrificans DSM 413, gene Pden_2366 amplified from genomic DNA and cloned into pET16b; also called aldehyde dehydrogenase EtgA; source: E. coli BL21 AI, purified (Ni-NTA, desalting, size exclusion on Superdex 200 Increase)

Experiments:
[1] = molecular target: the molecule itself; assay: cryo-EM structure; protein purified by Ni-NTA and size exclusion in buffer C (100 mM sodium chloride, 25 mM potassium phosphate pH 8.0, 1 mM DTT); Titan Krios 300 kV, K3 detector; processed in RELION-5.0; homo-oligomer seen in the map
[2] = substrate: O=CCO; assay: purified protein; format: biochemical, Paracoccus denitrificans; details: 30 °C
[3] = substrate: CC=O; assay: purified protein; format: biochemical, Paracoccus denitrificans; details: 30 °C
[4] = substrate: CCCCO; assay: purified protein; format: biochemical, Paracoccus denitrificans; details: 100 mM glycine-NaOH pH 10, 2.4 mM NAD+, 30 °C, oxidation
[5] = substrate: CC(O)CO; assay: purified protein; format: biochemical, Paracoccus denitrificans; details: 100 mM glycine-NaOH pH 10, 2.4 mM NAD+, 30 °C, oxidation
[6] = substrate: CCCO; assay: purified protein; format: biochemical, Paracoccus denitrificans; details: 100 mM glycine-NaOH pH 10, 2.4 mM NAD+, 30 °C, oxidation
[7] = substrate: OCCO; assay: purified protein; format: biochemical, Paracoccus denitrificans; details: 100 mM glycine-NaOH pH 10, 2.4 mM NAD+, 30 °C, oxidation
[8] = substrate: CCO; assay: purified protein; details: 100 mM glycine-NaOH pH 10, 2.4 mM NAD+, 30 °C, oxidation
[9] = 100 mM potassium phosphate pH 7.5, 0.2 mM NADH, reduction
[10] = 100 mM potassium phosphate pH 7.5, 2.4 mM NAD+, oxidation

Row | Protein | stoichiometry N [1] | Km [5] [µM] | kcat [5] [s⁻¹] | kcat/Km [5] [M⁻¹ s⁻¹] | Km [7] [µM] | kcat [7] [s⁻¹] | kcat/Km [7] [M⁻¹ s⁻¹] | Km [8] [µM] | kcat [8] [s⁻¹] | kcat/Km [8] [M⁻¹ s⁻¹] | also measured
1 | B1 | 4 | 59460 ± 3310 | 3.5 ± 0.1 | 59.6 ± 1 | 11050 ± 1320 | 7.2 ± 0.2 | 651 ± 22 | 120 ± 10 | 23.5 | 201000 | Km [2, 9]: 1040 ± 60 µM; kcat [2, 9]: 50.1 ± 1.2 s⁻¹; kcat/Km [2, 9]: 48300 ± 3200 M⁻¹ s⁻¹; Km [3, 9]: 40 ± 10 µM; kcat [3, 9]: 158 ± 2.9 s⁻¹; kcat/Km [3, 9]: 3.84e+06 ± 240000 M⁻¹ s⁻¹; Km [4]: 40 ± 10 µM; kcat [4]: 8.4 ± 0.1 s⁻¹; kcat/Km [4]: 213000 ± 14000 M⁻¹ s⁻¹; Km [6]: 110 ± 10 µM; kcat [6]: 18.7 ± 0.5 s⁻¹; kcat/Km [6]: 176000 ± 14000 M⁻¹ s⁻¹
2 | B2 |  | 27680 ± 1730 | 1.6 ± 0.1 | 57.8 ± 0.7 | 10170 ± 360 | 0.7 ± 0.1 | 70.2 ± 2.6 | 100 ± 20 | 3.2 | 33200 | 
3 | B3 |  | 67180 ± 8900 | 13.2 ± 0.6 | 197 ± 8 | 53690 ± 4040 | 14.7 ± 0.3 | 274 ± 6 | 230 ± 10 | 25.2 | 108000 | 
4 | B4 |  | 19750 ± 2980 | 6.5 ± 0.2 | 330 ± 11 | 11510 ± 1470 | 2.9 ± 0.1 | 251 ± 5 | 100 ± 20 | 10.7 | 105000 | 
5 | B5 | 4 |  |  |  |  |  |  |  |  |  | Km [2, 10]: 120 ± 10 µM; kcat [2, 10]: 6.3 ± 0.2 s⁻¹; kcat/Km [2, 10]: 51300 ± 4900 M⁻¹ s⁻¹; Km [3, 10]: 9 ± 1 µM; kcat [3, 10]: 1.3 ± 0.1 s⁻¹; kcat/Km [3, 10]: 135000 ± 21000 M⁻¹ s⁻¹
